These results are taken from patent US20260209316A1 (US Dept. of Health and Human Services, published 2026).

In experiment [1] the target is T1, full-length Zaire GP (GPFL) (Ebola (Zaire) virus (EBOV), UniProt Q05320 33-632).
T1 construct: also called Zaire GPFL; GP(Z)FL
T1 sequence: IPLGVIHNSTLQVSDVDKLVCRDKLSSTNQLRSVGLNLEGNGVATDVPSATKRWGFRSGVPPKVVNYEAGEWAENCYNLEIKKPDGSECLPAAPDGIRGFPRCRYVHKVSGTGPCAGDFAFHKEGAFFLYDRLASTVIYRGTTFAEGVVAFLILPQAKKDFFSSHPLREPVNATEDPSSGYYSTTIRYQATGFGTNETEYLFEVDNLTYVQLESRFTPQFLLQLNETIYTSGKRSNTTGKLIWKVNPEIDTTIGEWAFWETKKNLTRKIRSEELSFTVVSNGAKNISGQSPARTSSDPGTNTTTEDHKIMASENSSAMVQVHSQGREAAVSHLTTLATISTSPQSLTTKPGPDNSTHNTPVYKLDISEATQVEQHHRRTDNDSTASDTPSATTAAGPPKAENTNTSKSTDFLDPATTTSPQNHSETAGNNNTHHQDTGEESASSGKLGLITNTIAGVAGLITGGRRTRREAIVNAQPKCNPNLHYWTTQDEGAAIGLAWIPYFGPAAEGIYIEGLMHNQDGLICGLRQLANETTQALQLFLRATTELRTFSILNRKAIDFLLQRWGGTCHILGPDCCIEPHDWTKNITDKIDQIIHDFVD
In words: ELISA on coated GP. (In general: ELISA stands for enzyme-linked immunosorbent assay.)

The target in experiment [2] is T2, full-length Sudan GP (GPFL) (Sudan virus (SUDV), UniProt Q7T9D9 33-650).
T2 construct: also called Sudan GPFL; GP(S)FL
T2 sequence: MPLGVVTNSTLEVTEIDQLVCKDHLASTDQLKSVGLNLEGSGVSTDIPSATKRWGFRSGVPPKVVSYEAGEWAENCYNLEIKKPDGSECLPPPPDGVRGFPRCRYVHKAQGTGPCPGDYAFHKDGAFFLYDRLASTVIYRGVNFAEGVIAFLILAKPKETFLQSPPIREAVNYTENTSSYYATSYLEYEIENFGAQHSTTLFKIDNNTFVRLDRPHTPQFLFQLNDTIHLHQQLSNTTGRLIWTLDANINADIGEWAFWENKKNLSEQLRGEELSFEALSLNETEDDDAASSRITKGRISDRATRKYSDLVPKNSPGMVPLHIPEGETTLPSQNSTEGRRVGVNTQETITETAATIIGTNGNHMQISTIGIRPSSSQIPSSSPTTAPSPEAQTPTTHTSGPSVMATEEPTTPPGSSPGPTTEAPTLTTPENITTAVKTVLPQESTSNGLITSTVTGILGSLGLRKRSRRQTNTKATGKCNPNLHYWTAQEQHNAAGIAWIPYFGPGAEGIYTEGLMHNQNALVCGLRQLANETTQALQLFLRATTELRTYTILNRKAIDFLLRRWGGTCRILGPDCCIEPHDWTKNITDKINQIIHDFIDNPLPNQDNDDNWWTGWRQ
Nature of the experiment: ELISA on coated GP.

The target of experiment [3] is T3, EBOV GP on pseudotyped lentiviral vector (Ebola (Zaire) virus (EBOV), UniProt Q05320 33-676).
T3 sequence: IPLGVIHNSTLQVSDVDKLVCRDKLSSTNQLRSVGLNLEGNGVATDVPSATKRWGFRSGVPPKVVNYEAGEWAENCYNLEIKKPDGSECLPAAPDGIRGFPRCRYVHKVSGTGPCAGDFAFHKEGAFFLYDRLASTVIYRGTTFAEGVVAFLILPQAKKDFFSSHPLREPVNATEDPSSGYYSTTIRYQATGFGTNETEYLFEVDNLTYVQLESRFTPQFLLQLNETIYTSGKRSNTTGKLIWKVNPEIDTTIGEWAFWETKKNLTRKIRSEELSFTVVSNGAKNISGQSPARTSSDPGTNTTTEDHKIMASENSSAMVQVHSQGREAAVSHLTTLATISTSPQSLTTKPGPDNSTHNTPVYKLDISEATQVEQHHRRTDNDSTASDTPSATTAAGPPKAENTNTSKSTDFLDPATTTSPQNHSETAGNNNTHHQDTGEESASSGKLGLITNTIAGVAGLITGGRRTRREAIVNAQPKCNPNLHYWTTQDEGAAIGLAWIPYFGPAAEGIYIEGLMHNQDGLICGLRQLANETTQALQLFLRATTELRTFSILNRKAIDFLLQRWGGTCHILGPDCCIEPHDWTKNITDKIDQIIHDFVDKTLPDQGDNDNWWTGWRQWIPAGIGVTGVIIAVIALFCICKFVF
In words: cell-based or functional assay.

Experiment [4] concerns the target T4, SUDV GP on pseudotyped lentiviral vector (Sudan virus (SUDV), UniProt Q7T9D9 33-676).
T4 sequence: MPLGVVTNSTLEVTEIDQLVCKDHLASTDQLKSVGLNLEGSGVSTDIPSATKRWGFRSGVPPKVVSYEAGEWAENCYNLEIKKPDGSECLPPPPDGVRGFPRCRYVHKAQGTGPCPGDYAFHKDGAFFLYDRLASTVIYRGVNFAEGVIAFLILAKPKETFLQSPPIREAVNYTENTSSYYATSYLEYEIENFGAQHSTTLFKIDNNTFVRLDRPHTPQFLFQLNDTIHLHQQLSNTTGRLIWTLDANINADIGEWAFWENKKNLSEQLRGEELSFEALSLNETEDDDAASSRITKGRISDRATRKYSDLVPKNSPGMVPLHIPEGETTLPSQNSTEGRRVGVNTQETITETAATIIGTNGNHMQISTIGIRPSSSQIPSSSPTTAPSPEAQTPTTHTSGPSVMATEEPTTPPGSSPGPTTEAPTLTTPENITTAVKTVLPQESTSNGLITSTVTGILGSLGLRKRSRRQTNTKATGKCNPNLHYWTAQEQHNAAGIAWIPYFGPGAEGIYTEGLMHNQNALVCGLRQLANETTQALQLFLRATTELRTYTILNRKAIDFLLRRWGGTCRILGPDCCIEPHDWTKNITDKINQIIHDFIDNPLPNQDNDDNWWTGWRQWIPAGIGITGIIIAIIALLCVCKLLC
In words: cell-based or functional assay.

For experiment [5], the target named is T4, SUDV GP on pseudotyped lentiviral vector. Nature of the experiment: cell-based or functional assay. This is another data set of the same source.
Experiment [6] deals with T2, full-length Sudan GP (GPFL). In words: ELISA on coated GP. This is another data set of the same source.

Like-named read-outs stand apart in the source and are kept apart here.

As usually defined, the EC50 is the concentration that produces a half-maximal response. A higher EC50 goes with lower potency in that assay.

B1: antibody 380L (antibody, V domains shown)
VH: EVQLVESGGGLVQPGGSLTLSCAASGFTFGDYVMHWVRQVPGRGLEWLSAVSWSGYTTYSADSVKGRFTISRDNAKNSLYLQMSRLGTADTGLYYCVTLIGAIGIRDSFDAWGRGVLVTVSS
VL: QSVLTQPPSMSGAPGQRVTVSCTGSSSNIGAGNYVQWYQQLPGTAPKVLIYQTDKRPSGISDRFSGSKSGTSASLTISGLQSEDEADYYCQVYDSSLNGWVFGGGTRLTVL
notes: also called 380L mAb; mAb 380L
For B1, the EC50 in experiment [1] is 0.0398 µg/mL; in experiment [2] it was 0.0195 µg/mL. Besides, the “IC50, microneutralization of GP-pseudotyped lentiviral vector on HEK293 cells” value (shortened to “IC50, microneutralization”) was 0.756 µg/mL in experiment [3] and 0.395 µg/mL in experiment [4].

B2: antibody 545S (antibody, V domains shown)
VH: QVQLQESGPGLVKPSQTLSLTCTVSGGSISRAGSYWSWIRQHPGKGLEWIGYISYSGSTYYNPSLESRVTMSLDTSKSQFSLKLSSVTAADTAVYYCAREDRSGFYGLDVWGQGTTVTVSS
VL: QSVLTQPSSLSASPGATASLTCTLRSGINVDTYRIYWYQQKPGSPPQYLLRYKSDSDKHQGSGVPSRFSGSKDASANAGILLISGLQSADEADYYCMIWHSGAWVFGGGTKLTVQG
notes: also called 545S mAb
Consider B2, for which the “IC50, microneutralization” value in experiment [5] was 0.624 µg/mL. This molecule yielded an EC50 in experiment [6] of 0.0338 µg/mL.

B3: antibody 291S (antibody, V domains shown)
VH: QVQLQESGPGLVKPSQTLSLTCTVSGGSFSSGFYWSWIRQRPGKGLEWVGYTYYSGSTYYNPSLQSRVTISVDTSKNQFSLNLSSVTAADTAVYHCARADYGGLFDYWGQGILVTVSS
VL: QSVLTQPSSLSASPGASASLTCTLRSGINVGTYRIFWYQQKPGSPPQFLLRYNSDSDKQQGSGVPSRFSGSKDASANAGILLISGLQSEDEADYYCMIWHTSAWVFGGGTKLTVL
Regarding B3, the “IC50, microneutralization” value in experiment [5] came out at 2.89 µg/mL. In experiment [6], this molecule displayed an EC50 of 0.0565 µg/mL.
